Residue numbers refer to the chain shown, from its start. Names may count otherwise.
B1: A281C: bx9 SEQ ID NO:1 mutant (protein)
chain: MASSRTGAGAGGRVVVFPFPFQGHFNPVMRLARALHARGLAITVFHSGALDPADYPADYRFVPVTVEADPKLLASEDIAAIVTTLNASCDAPFRARLSALLAAEGRDSVRCVFTDVSWNAVLTASSDLGVPALGMMTASAASLRDYMAYRTLIDKGYLPVKEERKEDPVPELPPYLVKDLLRVDTSDLEEFAELLARTVTAARRASGLIFNTFPLIETDTLAEIHKALSVPVFAVAPLNKLVPTATASLHGVVQADRGCLQWLDTQQPGSVLYVSFGSMACMDPHEFVELAWGLADSKRPFVWVVRPNLIRGFESGALPDGVEDEVRGRGIVVAWAPQEEVLAHPAVGGFLTHNGWNSTVEAISEGVPMVCCPRHGDQFGNMRYVCDVWKVGTELVGEQLERGQVKAAIDRLFGTKEGEEIKERMKEFKIAAAKGIGIGVDVDETASPRTDLTDLVDLIKSF
modifications: Zea mays
B2: A334R: bx9 SEQ ID NO:1 mutant (protein)
chain: B1 chain with C281A, A334R
modifications: Zea mays
B3: A334V: bx9 SEQ ID NO:1 mutant (protein)
chain: B1 chain with C281A, A334V
modifications: Zea mays
B4: A334L: bx9 SEQ ID NO:1 mutant (protein)
chain: B1 chain with C281A, A334L
modifications: Zea mays
B5: T220M: bx9 SEQ ID NO:1 mutant (protein)
chain: B1 chain with T220M, C281A
modifications: Zea mays
B6: I363L: bx9 SEQ ID NO:1 mutant (protein)
chain: B1 chain with C281A, I363L
modifications: Zea mays
B7: A281K: bx9 SEQ ID NO:1 mutant (protein)
chain: B1 chain with C281K
modifications: Zea mays
B8: T220K: bx9 SEQ ID NO:1 mutant (protein)
chain: B1 chain with T220K, C281A
modifications: Zea mays
B9: T220L: bx9 SEQ ID NO:1 mutant (protein)
chain: B1 chain with T220L, C281A
modifications: Zea mays
B10: A281R: bx9 SEQ ID NO:1 mutant (protein)
chain: B1 chain with C281R
modifications: Zea mays
B11: A281M: bx9 SEQ ID NO:1 mutant (protein)
chain: B1 chain with C281M
modifications: Zea mays
B12: A334Q: bx9 SEQ ID NO:1 mutant (protein)
chain: B1 chain with C281A, A334Q
modifications: Zea mays
B13: T220I: bx9 SEQ ID NO:1 mutant (protein)
chain: B1 chain with T220I, C281A
modifications: Zea mays
B14: A281Q: bx9 SEQ ID NO:1 mutant (protein)
chain: B1 chain with C281Q
modifications: Zea mays
B15: A334S: bx9 SEQ ID NO:1 mutant (protein)
chain: B1 chain with C281A, A334S
modifications: Zea mays
B16: A334N: bx9 SEQ ID NO:1 mutant (protein)
chain: B1 chain with C281A, A334N
modifications: Zea mays
B17: T220Y: bx9 SEQ ID NO:1 mutant (protein)
chain: B1 chain with T220Y, C281A
modifications: Zea mays
B18: T220N: bx9 SEQ ID NO:1 mutant (protein)
chain: B1 chain with T220N, C281A
modifications: Zea mays
B19: T220E: bx9 SEQ ID NO:1 mutant (protein)
chain: B1 chain with T220E, C281A
modifications: Zea mays

Experiments:
[1] = UDP luminescence plate assay of E. coli extracts, saturation mutants of SEQ ID NO: 1, herbicide V; format: biochemical, Zea mays; conditions: improvement factor relative to w/t bx9 = 1.0, rounded to nearest 0.5; extract activity basis; compound V
[2] = UDP luminescence plate assay of E. coli extracts, mutants of SEQ ID No: 1, 2 mM metribuzin; format: biochemical, Zea mays; conditions: for SIGNAL: metribuzin signal of mutant divided by the signal of w/t bx9 / luminescence signal observed with 2 mM metribuzin / SIGNAL: metribuzin signal of mutant divided by metribuzin signal of w/t bx9 / luminescence signal with metribuzin: 2 mM metribuzin; for SIGNAL: metribuzin signal of mutant divided by the signal of w/t bx9: relative to bx9 w/t; for luminescence signal in the DMSO control: mutants of SEQ ID No: 1, DMSO in place of metribuzin (background UDP-glucose hydrolysis); for luminescence signal observed with 2 mM metribuzin: mutants of SEQ ID No: 1 in E. coli extracts, UDP luminescence; for luminescence signal with metribuzin: H24A null background 1.00E+05 not subtracted
Summary of the method: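 Extracts of E. coli BL21 DE3 expressing C-terminally His-tagged SEQ ID NO:1 variants incubated with 2 mM metribuzin; UDP formed read by UDP-Glo luminescence against a UDP standard curve, with optional 95 C stop. Mutants ranked by metribuzin/DMSO signal ratio and signal increase over wild-type bx9.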

| Molecule | Most Preferred amino acid substitutions and (IF) based on RLU/min/ul [1] | SIGNAL: metribuzin signal of mutant divided by the signal of w/t bx9 [2] | luminescence signal in the DMSO control [2] | luminescence signal observed with 2 mM metribuzin [2] | SIGNAL: metribuzin signal of mutant divided by metribuzin signal of w/t bx9 [2] | luminescence signal with metribuzin [2] | Preferred amino acid substitutions and (IF) based on RLU/min/ul [1] |
| --- | --- | --- | --- | --- | --- | --- | --- |
| B1 | C,Q(3.0) | 1.58 | 4.80E+05 | 4.43E+05 |  |  |  |
| B2 | K,R(2.0) |  |  |  | 1.94 | 2.39E+05 |  |
| B3 |  | 1.57 | 4.80E+05 | 4.40E+05 |  |  | S,Q,V,L(1.5) |
| B4 |  | 1.51 | 5.19E+05 | 4.22E+05 |  |  | S,Q,V,L(1.5) |
| B5 |  |  |  |  |  |  | C,A,N,E,L,I,M(1.5) |
| B6 | L,M(3.0) | 1.24 | 4.00E+05 | 3.47E+05 |  |  |  |
| B7 | 6.0 | 4.98 | 1.66E+06 | 1.39E+06 |  |  |  |
| B8 | 3.0 |  |  |  |  |  |  |
| B9 |  |  |  |  |  |  | C,A,N,E,L,I,M(1.5) |
| B10 | 5.0 | 3.90 | 1.30E+06 | 1.09E+06 |  |  |  |
| B11 | 5.0 | 2.59 | 8.45E+05 | 7.25E+05 |  |  |  |
| B12 |  | 1.22 | 4.88E+05 | 3.40E+05 |  |  | S,Q,V,L(1.5) |
| B13 |  |  |  |  |  |  | C,A,N,E,L,I,M(1.5) |
| B14 | C,Q(3.0) | 2.82 | 7.59E+05 | 7.89E+05 |  |  |  |
| B15 |  |  |  |  | 0.98 | 1.21E+05 | S,Q,V,L(1.5) |
| B16 |  |  |  |  | 1.56 | 1.93E+05 | N(1.0) |
| B17 | 3.5 |  |  |  |  |  |  |
| B18 |  |  |  |  |  |  | C,A,N,E,L,I,M(1.5) |
| B19 |  |  |  |  |  |  | C,A,N,E,L,I,M(1.5) |
